Data taken from US20250296996A1 (BROADWING BIO, published 2025).

Columns and labels:
P66 (rabbit ANGPTL7-his) = biological target: T1, P66 (rabbit ANGPTL7-his) (rabbit, UniProt G1T4P1 27-344); assay: BLI Octet HTX; IgG on AHC sensor; P66 at 200 nM
T1 construct: mature; also called rabbit ANGPTL7 protein
T1 sequence: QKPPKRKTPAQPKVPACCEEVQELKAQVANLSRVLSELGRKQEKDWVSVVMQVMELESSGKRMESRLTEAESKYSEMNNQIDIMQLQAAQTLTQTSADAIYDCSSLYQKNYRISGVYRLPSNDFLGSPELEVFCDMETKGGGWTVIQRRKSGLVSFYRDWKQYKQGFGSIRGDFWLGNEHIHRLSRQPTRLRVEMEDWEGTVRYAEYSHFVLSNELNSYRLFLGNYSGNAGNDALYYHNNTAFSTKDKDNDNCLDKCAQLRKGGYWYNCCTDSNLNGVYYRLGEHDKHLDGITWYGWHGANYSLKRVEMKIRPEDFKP
Method: Experiments were also conducted to determine the reactivity and dissociation constants ([…]) of anti-ANGPTL7 antibodies with the rabbit ANGPTL7 protein. Binding experiments were performed on Octet HTX (ForteBio) in Rx PBS, pH 7.4, 0.1 mg/mi BSA, 0.05% Sodium Azide, and 0.02% Tween 20. Antibodies at a concentration of 50 nM were loaded on pre-hydrated AHC biosensors for 5 min. The loaded sensors were dipped into monovalent P66 (rabbit ANGPTL7-his) at a concentration of 200 nM for 5 min of association, followed by 10 min of dissociation. […] Responses (nm) at the end of association were also determined (Table 6).

[1] = biological target: T2, muANGPTL7-his (R&D Systems) (mouse, UniProt Q8R1Q3 22-337, limits assumed); assay: BLI Octet HTX; IgG on AHC sensor; muANGPTL7-his at 200 nM; 1:1 fit
T2 construct: Bought protein; also called mouse ANGPTL7 protein
T2 sequence (looked up): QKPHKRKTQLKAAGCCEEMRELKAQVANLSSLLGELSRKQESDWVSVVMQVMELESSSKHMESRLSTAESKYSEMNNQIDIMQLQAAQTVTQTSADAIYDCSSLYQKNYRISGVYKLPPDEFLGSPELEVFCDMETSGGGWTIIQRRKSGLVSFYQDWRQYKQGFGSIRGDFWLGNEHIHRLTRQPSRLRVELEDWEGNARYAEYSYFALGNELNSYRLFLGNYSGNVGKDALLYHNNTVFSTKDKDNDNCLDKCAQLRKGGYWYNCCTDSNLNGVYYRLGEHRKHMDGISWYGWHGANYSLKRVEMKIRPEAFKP
How it was run: (§1)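 Anti-ANGPTL7 antibodies (50 nM) were loaded on AHC biosensors in PBS pH 7.4 with BSA, azide and Tween 20. Sensors were dipped in monovalent mouse ANGPTL7-his (200 nM) for 5 min association and 10 min dissociation. KD came from a 1:1 fit, and responses were taken at the end of association.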

[2] = biological target: T3, Pext-01 (huANGTPL7-FLAG multimer) (human, UniProt O43827 27-346); assay: BLI Octet HTX; IgG on AHC sensor; Pext-01 at 100 nM
T3 construct: also called PExt-1; human wild type ANGPTL7 multimer; not shown: FLAG tag
T3 sequence: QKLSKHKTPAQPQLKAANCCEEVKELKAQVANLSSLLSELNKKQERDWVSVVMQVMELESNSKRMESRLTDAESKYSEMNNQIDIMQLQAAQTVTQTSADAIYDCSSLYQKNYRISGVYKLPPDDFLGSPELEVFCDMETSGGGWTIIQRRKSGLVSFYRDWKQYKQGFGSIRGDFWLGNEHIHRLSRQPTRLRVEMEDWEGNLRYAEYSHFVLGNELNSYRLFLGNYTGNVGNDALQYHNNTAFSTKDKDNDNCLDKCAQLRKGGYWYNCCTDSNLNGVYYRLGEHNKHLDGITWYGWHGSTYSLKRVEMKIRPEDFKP
Method: Experiments were also conducted to determine the reactivity and dissociation constants (KD) of anti-ANGPTL7 antibodies with the human ANGPTL7 multimer protein. Binding experiments were performed on Octet HTX (ForteBio) in 1×PBS, pH 7.4, 0.1 mg/ml BSA, 0.05% Sodium Azide, and 0.02% Tween 20. Antibodies at a concentration of 50 nM were loaded on pre-hydrated AHC biosensors for 5 mi. The loaded sensors were dipped into Pext-01 (huANGTPL7-FLAG) at a concentration of 100 nM for 5 min of association, followed by 10 min of dissociation. […] Responses (nm) at the end of association were also determined (Table 7).

P62 (huANGPTL7-his) [3] = biological target: T4, P62 (huANGPTL7-his) (human, UniProt O43827 27-346); assay: BLI Octet HTX; IgG on AHC sensor; P62 0.343-250 nM
T4 construct: not shown: C-terminal short linker and His tag
T4 chain: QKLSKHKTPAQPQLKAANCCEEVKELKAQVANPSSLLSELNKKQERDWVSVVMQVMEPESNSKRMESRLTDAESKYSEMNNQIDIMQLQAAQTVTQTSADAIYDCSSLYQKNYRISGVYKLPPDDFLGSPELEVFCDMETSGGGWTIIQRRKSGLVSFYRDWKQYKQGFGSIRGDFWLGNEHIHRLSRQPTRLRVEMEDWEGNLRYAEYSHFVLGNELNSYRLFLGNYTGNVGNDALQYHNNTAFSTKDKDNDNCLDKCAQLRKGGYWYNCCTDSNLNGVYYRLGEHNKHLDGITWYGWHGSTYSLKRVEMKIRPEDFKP
Method: (§2) Experiments were also conducted to determine the reactivity and dissociation constants (KD) of anti-ANGPTL7 antibodies with the human ANGPTL7-his protein. Binding experiments were performed on Octet HTX (ForteBio) in 1×PBS, pH 7.4, 0.1 mg/mi BSA, 0.05% Sodium Azide, and 0.02% Tween 20. To measure monovalent binding kinetics, antibodies at a concentration of 50 nM were loaded on pre-hydrated AHC biosensors for 5 min. The loaded sensors were dipped into monovalent P62 (huANGPTL7-his) at a range of concentration from 0.343-250 nM (a serial 3-fold dilution) for 5 min association, followed by 10 min dissociation.

[4] = biological target: T2, muANGPTL7-his (R&D Systems); assay: BLI Octet HTX; IgG on AHC sensor; muANGPTL7-his at 200 nM
How it was run: as §1

P62 (huANGPTL7-his) [5] = biological target: T4, P62 (huANGPTL7-his); assay: BLI Octet HTX; IgG on AHC sensor; P62 0.343-250 nM; global 1:1 fit
Method: as §2

B1: ATX-P-428 (antibody, human IgG1, kappa, N297A, V domains shown)
VH: QVQLVQSGAEVKKPGASVKVSCKASGYTFSSYGISWVRQAPGQGLEWMGWISAYNGNTNYAQNLRGRVAMTTDTSTTTAYMELRSLRSDDTAVYYCARVSLVWFGELPRGFDYWGQGTLVTVSS
VL: not shown
notes: Full chains (VH + hIgG1-Agly-Fc)
binding result (P66 (rabbit ANGPTL7-his)): no binding (tested: 200 nM)
Response [1]: 0.04 nm
binding result [2]: no binding (tested: 100 nM)
binding result (P62 (huANGPTL7-his) [3]): no binding (tested: 250 nM)
binding result [4]: no binding (tested: 200 nM)

B2: ATX-P-449 (antibody, human IgG1, kappa, N297A, V domains shown)
VH: QVQLVESGGGVVQPGRSLRLSCAASGFAFSSYGMHWVRQAPGKGLEWVAVISYYGSNKYYADSVKGRFTISRDNSKNTLYLQMNSLRAEDTAVYHCARGITMDVWGKGTTVTVSS
VL: EIVLTQSPATLSLSPGERATLSCRASQSVSSYLAWYQQKPGQAPRLLIYDASNRATGIPARFSGSGSGTDFTLTISSLEPEDFAVYYCQQRSNWPLTFGGGTKVEIKR
notes: as for B1
Kd [1]: 0.857 nM
Response [1]: 0.75 nm
binding result (P62 (huANGPTL7-his) [5]): binds

B3: ATX-P-443 (antibody, human IgG1, kappa, N297A, V domains shown)
VH: QVQLVQSGAEVKKPGASVKVSCKASGYTFTSYGISWVRQAPGQGLEWMGWIIAYNGNTNYAQKLQGRITMTTNTSTNTAYMELRSLRSDDTAVYYCGRDTGFSFDYWGQGTLVTVSS
VL: not shown
notes: as for B1
binding result (P66 (rabbit ANGPTL7-his)): no binding (tested: 200 nM)
binding result [2]: no binding (tested: 100 nM)
binding result (P62 (huANGPTL7-his) [3]): no binding (tested: 250 nM)
binding result [4]: no binding (tested: 200 nM)
